Starred links: 1 amine or outer side, 2 acyl side, 3 side chain; linkers in the order of their positions; H or OH if unused. Positions of bridges follow the written chain, without caps; N, C: chain ends. Non-standard residues stand in square brackets, D forms with d. Residues, ends and D or L forms follow the SMILES beside them. No end group written: not given here. βAsp = O=C(O)[C@H](CC(=O)[*:2])N[*:1]
B1: acetyl-CisoDGRCGVRY peptide (peptide)
peptide: Ac-C[βAsp]GRCGVRY
modifications: disulfide 1-5
B2: CisoDGRCGVRY peptide (peptide)
peptide: C[βAsp]GRCGVRY
modifications: disulfide 1-5
B3: CNGRCGVRY peptide (peptide)
peptide: CNGRCGVRY
modifications: disulfide 1-5
notes: Synthetic peptide corresponding to the N-terminal region of human NGR-TNF
B4: SCNGRCGVRY peptide (peptide)
peptide: SCNGRCGVRY
modifications: disulfide 2-6
notes: Synthetic peptide corresponding to the N-terminal region of human S-NGR-TNF
B5: SCDGRCGVRY peptide (peptide)
peptide: SCDGRCGVRY
B6: SCisoDGRCGVRY peptide (peptide)
peptide: SC[βAsp]GRCGVRY
modifications: disulfide 2-6
B7: acetylated-CNGRCGVRY peptide (peptide)
peptide: Ac-CNGRCGVRY
modifications: disulfide 1-5

Legend:
[1] = Peptide deamidation stability upon incubation at 37° C., by mass spectrometry; format: physicochemical; details: pH 7.4
Protocol: FIG. 11. The peptide SCNGRCGVRY (SEQ ID NO: 3) has a lower propensity to deamidate than CNGRCGVRY (SEQ ID NO:4) in a physiological buffer at […], but not in ammonium bicarbonate buffer at pH 8.5. A and B) MS analysis of SCNGRCGVRY (SEQ ID NO: 3) and CNGRCGVRY (SEQ ID NO:4) after incubation at 37° C. for the indicated time in 50 mM sodium phosphate buffer, pH 7.4 (PBS) or 0.1 M ammonium bicarbonate buffer, pH 8.5 (Ambic). The values +0, + 1, -17 reported in the plot correspond to the difference between the observed and the expected molecular mass of peptides expressed in daltons. MS analysis was performed using the LTQ-Orbitrap mass spectrometer (Thermo Scientific).
To assess whether the addition of the serine residue to CNGRCG (SEQ ID NO:1) might affect its deamidation propensity inventors synthetized the SCNGRCGVRY (SEQ ID NO: 3) and CNGRCGVRY (SEQ ID NO:4) peptides and studied their stability upon incubation at 37° C. in PBS, pH 7.4, by mass spectrometry.
A similar experiment was then performed with peptides in 0.1 M ammonium bicarbonate, pH 8.5, a condition known to force Asn deamidation (Curnis et al. 2006). […] Furthermore, the succinimide-derivative of S-NGR-TNF, when formed, is more prone to hydrolysis.

αvβ3 = αvβ3 (Homo sapiens, UniProt P05106+P06756); assay: Competitive binding of acetyl-CisoDGRCG/streptavidin-peroxidase to integrin-coated microtiterplates; details: αvβ3, αvβ5, αvβ6, αvβ8 and α5β1 (all integrins)
Text: To assess whether the isoDGR derivative of S-NGR-TNF and NGR-TNF targeting domains can recognize integrins with similar affinities inventors then analysed the binding of SCisoDGRCGVRY (SEQ ID NO: 17), CisoDGRCGVRY and acetyl-CisoDGRCGVRY to αvβ3, αvβ5, αvβ6 αvβ8 and α5β1 integrins using a competitive binding assay previously described (Curnis et al. 2010). […] As expected […] (SEQ ID NO: 3) and […] […] Considering that human NGR-TNF contains acetylated and non-acetylated forms and that both CNGRC (SEQ ID NO:5) and acetyl-CNGRC can undergo deamidation (Curnis et al. 2010), inventors can conclude that the isoDGR derivative of S-NGR-TNF, if formed, behave in a manner similar to those of the isoDGR derivatives of NGR-TNF in terms of integrin recognition.

L-M cells = assay: LM-cells cytolytic assay (MTT); format: cell-based; details: actinomycin D, 20 h, murine proteins
Text: FIG. 8. Biochemical and biological characterization of murine S-NGR-TNF and NGR-TNF. A) SDS-PAGE under reducing (βMe +) and non-reducing conditions (βMe -) of murine S-NGR-TNF, NGR-TNF and TNF. Arrows: bands corresponding to monomeric subunits (mon) and reducible dimers (dim). B) Representative mass spectra of murine NGR-TNF, TNF and S-NGR-TNF as determined by a Q Exactive HF mass spectrometer. Expected average masses are shown. C) Cytotoxic activity of TNF, NGR-TNF and S-NGR-TNF against L-M cells. L-M cells were incubated in DMEM medium supplemented with 2 mM glutamine, 100 U/ml penicillin, 100 µg/ml streptomycin, 0.25 µg/ml amphotericin-B, 10% fetal bovine serum, 2 µg/ml actinomycin D and TNF, NGR-TNF or S-NGR-TNF at the indicated doses (20 h at 37° C., 5% CO2). Cell viability was quantified by standard 3-(4,5-dimethylthiazol-2-yl)-2,5-diphenyltetrazolium bromide (MTT) assay. D) Binding of TNF, NGR-TNF and S-NGR-TNF to sTNF-R1 (Etanercept). Microtiterplates were precoated with or without the indicated amount of sTNF-R1 (for 16 h), washed with PBS, blocked with PBS containing 3% milk, 1% BSA (binding buffer, 1 h) and incubated with the indicated amounts of TNF, NGR-TNF or S-NGR-TNF diluted in binding buffer (for 1.5 h). The binding of each protein to sTNF-R1 was then detected using a polyclonal anti-murine TNF (IP301, 5 µg/ml in binding buffer, 1 h) followed by a polyclonal goat anti-rabbit antibody conjugated with horseradish peroxidase (1:1000 in binding buffer, 1 h) and o-phenylendiammine as chromogenic substrate.
To assess whether the addition of a serine residue to NGR-TNF affects its capability to recognize the TNF receptors and, consequently, its biological activity, inventors then analyzed the cytotoxic activity of TNF, NGR-TNF and S-NGR-TNF in the LM-cells cytolytic assay.

α5β1 integrin = target: T1, α5β1 integrin (UniProt P08648 42-995; P05556 21-728, limits assumed); assay: competitive binding assay, integrin-coated plates; competitor probe acetyl-CisoDGRCG/streptavidin-peroxidase
T1 construct: Coated on microtiter plates
Text: (§1) To assess whether the isoDGR derivative of S-NGR-TNF and NGR-TNF targeting domains can recognize integrins with similar affinities inventors then analysed the binding of SCiso[…] (SEQ ID NO: 17), Ciso[…] and acetyl-Ciso[…] to αvβ3, αvβ5, αvβ6 αvβ8 and α5β1 integrins using a competitive binding assay previously described (Curnis et al. 2010). […] Considering that human NGR-TNF contains acetylated and non-acetylated forms and that both CNGRC (SEQ ID NO:5) and acetyl-CNGRC can undergo deamidation (Curnis et al. 2010), inventors can conclude that the isoDGR derivative of S-NGR-TNF, if formed, behave in a manner similar to those of the isoDGR derivatives of NGR-TNF in terms of integrin recognition.
(§2) a) Competitive binding of acetyl-CisoDGRCG/streptavidin-peroxidase to integrins. The binding assay was performed using integrin-coated microtiterplates as previously described (Curnis et al. 2013). b) n, number of independent experiments, each in duplicate.

αvβ3 integrin = target: T2, αvβ3 integrin (UniProt P06756 31-992; P05106 27-718, limits assumed); assay: as above
T2 construct: Coated on microtiter plates
Text: as §1, §2

αvβ8 integrin = target: T3, αvβ8 integrin (UniProt P06756 31-992; P26012 43-684, limits assumed); assay: as above
T3 construct: Coated on microtiter plates
Text: as §1, §2

αvβ6 integrin = target: T4, αvβ6 integrin (UniProt P06756 31-992; P18564 22-707, limits assumed); assay: as above
T4 construct: Coated on microtiter plates
Text: as §1, §2

αvβ5 integrin = target: T5, αvβ5 integrin (UniProt P06756 31-992; P18084 24-719, limits assumed); assay: as above
T5 construct: Coated on microtiter plates
Text: as §1, §2

[2] = target: T6, recombinant human histidine-tagged CD13 (human, UniProt P15144 69-967, limits assumed); assay: CD13 enzyme kinetics inhibition, 50 mM Tris-HCl buffer, pH 7.4
T6 construct: Histidine tag present; also called aminopeptidase N

[3] = target: T6, recombinant human histidine-tagged CD13; assay: CD13 enzyme kinetics inhibition, 60 mM potassium phosphate buffer, pH 7.4
Text: FIG. 10. The peptide […] (SEQ ID NO: 3) inhibits CD13 enzymatic activity more efficiently than […] (SEQ ID NO:4) and acetylated-[…]. A) Steady state kinetic analysis of CD13 in the presence of various amounts of L-alanine p-nitroanilide substrate and […] (SEQ ID NO: 3), […] (SEQ ID NO:4), or acetylated-[…] (ac-[…]) (SEQ ID NO:42). A representative plot of 3-4 independent experiments, showing the initial velocity (V₀) versus substrate concentration (mean ± SE of four technical replicates), is shown. The assays were performed with recombinant human histidine-tagged CD13 (200-300 ng/ml) in 60 mM potassium phosphate buffer, pH 7.4, at room temperature. The kinetic of p-nitroanilide formation was monitored spectrophotometrically (A405 nm) for 5-10 min. The inhibitory constant (Ki) reported in each plot is the result of the 3-4 independent experiments (mean ± SE). B) Double reciprocal plots of the experiments reported in panel A.
Each experiment was performed with 4 technical replicates

Row | Molecule | Ki (α5β1 integrin) [nM] | Ki (αvβ3 integrin) [nM] | Ki (αvβ8 integrin) [nM] | Ki (αvβ6 integrin) [nM] | Ki (αvβ5 integrin) [nM] | Ki [2] [nM] | Ki [3] [nM] | other results
1 | CC(C)[C@H](NC(=O)CNC(=O)[C@@H]1CSSC[C@H](N)C(=O)N[C@@H](CC(N)=O)C(=O)NCC(=O)N[C@@H](CCCNC(=N)N)C(=O)N1)C(=O)N[C@@H](CCCNC(=N)N)C(=O)N[C@@H](Cc1ccc(O)cc1)C(=O)O [CNGRCGVRY, CNGRCGVRY (SEQ ID NO:4), reference compound] (H-CNGRCGVRY-OH; disulfide 1-5 (inferred); N-terminus and C-terminus assumed) |  |  |  |  |  |  |  | -17 Da form (succinimide intermediate of deamidation) ([1]; after 2 h at 37° C. in PBS): observed; +1 Da deamidation product (DGR/isoDGR) ([1]; after 32 h at 37° C. in PBS): observed; -17 Da form still present ([1]; after 32 h at 37° C. in PBS): a large amount of the -17 Da form was still present
2 | CC(C)[C@H](NC(=O)CNC(=O)[C@@H]1CSSC[C@H](NC(=O)[C@@H](N)CO)C(=O)N[C@@H](CC(=O)O)C(=O)NCC(=O)N[C@@H](CCCNC(=N)N)C(=O)N1)C(=O)N[C@@H](CCCNC(=N)N)C(=O)N[C@@H](Cc1ccc(O)cc1)C(=O)O [SCDGRCGVRY, SCDGRCGVRY (SEQ ID NO:22)] (H-SCDGRCGVRY-OH; disulfide 2-6; N-terminus and C-terminus assumed) |  |  |  |  |  |  |  | affinity for integrins (αvβ3): no or very low affinity
3 | TNF: Murine tumor necrosis factor-α (SEQ ID NO: 15) [reference compound] |  |  |  |  |  |  |  | EC50 cytotoxic activity (L-M cells): very similar
4 | B1 | 4 | 3 | 18 | 5 | 21 |  |  | 
5 | B2 | 75 | 11 | 554 | 131 | 391 |  |  | 
6 | B3 |  |  |  |  |  | 35600 | 76500 | 
7 | B4 | > 10000 | > 10000 | > 10000 | > 10000 | > 10000 | 6800 | 25000 | 
8 | B5 | 4790 | 3340 | 21400 | 5500 | 779 |  |  | 
9 | B6 | 11 | 17 | 156 | 25 | 77 |  |  | 
10 | B7 |  |  |  |  |  | 38100 | 50700 | 
